Test results published in patent US20240270857A1 (CHIA TAI TIANQING PHARMACEUTICAL GROUP, published 2024).
Where a chain is given by its changes, count along the chain named. Like-named read-outs stand apart in the source and are kept apart here. Blank lines part the entries; values can stand above or below the binder they belong to.

Key:
[1] = target: T1, IL-36R naturally expressed on OVCAR8 cells and on normal human epidermal keratinocytes (NHK cells) (human, UniProt Q9HB29 20-575); experiment: cell-based or functional assay
T1 sequence (looked up): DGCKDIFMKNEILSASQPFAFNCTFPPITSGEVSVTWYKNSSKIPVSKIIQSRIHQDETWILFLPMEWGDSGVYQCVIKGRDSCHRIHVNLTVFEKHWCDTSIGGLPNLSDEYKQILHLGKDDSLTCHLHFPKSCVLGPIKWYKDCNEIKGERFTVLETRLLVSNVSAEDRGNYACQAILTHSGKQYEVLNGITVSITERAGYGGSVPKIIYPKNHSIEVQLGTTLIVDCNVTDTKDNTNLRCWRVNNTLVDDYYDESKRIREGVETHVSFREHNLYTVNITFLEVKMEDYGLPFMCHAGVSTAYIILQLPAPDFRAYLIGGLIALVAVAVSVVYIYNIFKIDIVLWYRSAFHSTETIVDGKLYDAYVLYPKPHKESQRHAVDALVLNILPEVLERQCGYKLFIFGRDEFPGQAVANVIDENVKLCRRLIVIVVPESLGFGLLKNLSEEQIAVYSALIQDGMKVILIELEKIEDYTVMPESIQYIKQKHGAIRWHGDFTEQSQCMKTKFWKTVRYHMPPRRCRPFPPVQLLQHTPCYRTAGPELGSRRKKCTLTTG

[2] = target: T2, human IL-36R overexpressed on 293T-hIL36R-NFκB cells (human, UniProt Q9HB29 20-575); experiment: cell-based or functional assay
T2 sequence: T1 sequence (looked up)

[3] = target: T3, Human IL-1Rrp2/IL-1R6 protein, His Tag (ACROBiosystems, IL2-H52H6) (human, UniProt Q9HB29 20-335); experiment: BLI (ForteBio Octet), antibody on ProA sensor, 1:1 model
T3 construct: Bought protein; the soluble protein is likely only the extracellular part; also called hIL-36R; human IL36R antigen; not shown: His tag
T3 sequence: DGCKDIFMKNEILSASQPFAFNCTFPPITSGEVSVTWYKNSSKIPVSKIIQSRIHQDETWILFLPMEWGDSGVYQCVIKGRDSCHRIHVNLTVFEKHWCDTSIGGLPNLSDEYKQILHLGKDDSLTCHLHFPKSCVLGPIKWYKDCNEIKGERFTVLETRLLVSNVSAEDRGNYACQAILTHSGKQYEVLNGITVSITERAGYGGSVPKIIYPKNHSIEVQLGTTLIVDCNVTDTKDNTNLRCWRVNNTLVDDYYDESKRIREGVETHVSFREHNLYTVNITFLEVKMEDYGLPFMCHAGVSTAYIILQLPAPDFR
Description: The affinity of anti-IL-36R antibodies to CynoIL36R-ECD mFc and human IL-1Rrp2/IL-IR6 protein, His Tag (ACROBiosystems, IL2-H52H6) was measured by a ForteBio molecular interaction instrument. […] And then the biosensor was used to bind CynoIL36R-ECD mFc or human IL-1Rrp2/IL-1R6 protein, His Tag which was diluted by a gradient (the initial concentration was 200 nM, 2-fold gradient dilution), the response signals were detected in real time using a Fortebio molecular interaction instrument (SARTORIUS, octet red 96e), and association and dissociation curves were obtained. After the completion of dissociation in each cycle, the biosensor was regenerated for the next capture; the procedure was repeated until the affinity of the different anti-IL-36R antibodies for IL-36R was determined. The resulting data were analyzed by Fortebio Data Analysis 11.0 software in a 1:1 (Langmuir) binding model to determine kₐ (kₒₙ) and kd (koff) values, and the dissociation constant KD was calculated by KD=kd/kₐ. The detection method essentially followed the manufacturer's recommendations, and more information could be found at www.fortebio.com.
Affinity, binding and blocking assays for humanized antibodies hz72C1-1.1, hz72C1-1.2, hz72C1-1.3, hz72C1-2.1, hz72C1-2.2 and hz72C1-2.3 as well as hz84C4-1.1, hz84C4-1.2, hz84C4-1.3, hz84C4-1.4, hz84C4-1.5, hz84C4-2.1, hz84C4-2.2, hz84C4-2.3, hz84C4-2.4 and hz84C4-2.5 were performed according to the methods of Example 4, Example 5. Example 6, Example 7 and Example 8.

[4] = target: T1, IL-36R naturally expressed on OVCAR8 …; experiment: cell-based or functional assay; remark: listed apart in the source
[5] = target: T1, IL-36R naturally expressed on OVCAR8 …; experiment: cell-based or functional assay; remark: listed apart in the source
[6] = target: T1, IL-36R naturally expressed on OVCAR8 …; experiment: cell-based or functional assay; remark: listed apart in the source

B1: hz84C4-1.1 (antibody, human IgG4 S228P, kappa, V domains shown)
VH: QVQLVQSGAEVKKPGASVKVSCKASGYFFTSYWMNWVRQAPGQGLEWMGMIHPYDSETRYAQKFQGRVTMTVDKSTSTVYMELSSLRSEDTAVYYCASSTTAFAYWGQGTLVTVSS
VL: DIQMTQSPSSLSASVGDRVTITCRASQDIGNALNWYQQKPGKAPKRLIYATSSLDPGVPSRFSGSRSGTDFTLTISSLQPEDFATYYCLQYASSPYTFGQGTKVEIKR
notes: Humanized, human IgG4 / kappa
IC50 (M); hIL36α; IL-8 production [1]: 2.62e-11 M
IC50 (M); hIL36αβγ; IL-8 production [1]: 5.25e-11 M
IC50 (M); hIL36β; IL-8 production [1]: 2.27e-11 M
IC50 (M); hIL36γ; IL-8 production [1]: 1.44e-11 M
Maximum inhibition rate %; hIL36α; IL-8 production [1]: 103%
Maximum inhibition rate %; hIL36αβγ; IL-8 production [1]: 93.7%
Maximum inhibition rate %; hIL36β; IL-8 production [1]: 103%
Maximum inhibition rate %; hIL36γ; IL-8 production [1]: 103%
IC50 (M); hIL36α; NFκB-luciferase [2]: 8.82e-10 M
IC50 (M); hIL36αβγ; NFκB-luciferase [2]: 1.82e-09 M
IC50 (M); hIL36β; NFκB-luciferase [2]: 9.28e-10 M
IC50 (M); hIL36γ; NFκB-luciferase [2]: 5.76e-10 M
Maximum inhibition rate %; hIL36α; NFκB-luciferase [2]: 84.1%
Maximum inhibition rate %; hIL36αβγ; NFκB-luciferase [2]: 61.2%
Maximum inhibition rate %; hIL36β; NFκB-luciferase [2]: 85.3%
Maximum inhibition rate %; hIL36γ; NFκB-luciferase [2]: 83.5%
Kd [3]: 0.958 nM
koff [3]: 0.000102 s⁻¹
kon [3]: 107000 M⁻¹ s⁻¹

B4: BI655130 (antibody, human IgG1, kappa, L234A L235A)
heavy: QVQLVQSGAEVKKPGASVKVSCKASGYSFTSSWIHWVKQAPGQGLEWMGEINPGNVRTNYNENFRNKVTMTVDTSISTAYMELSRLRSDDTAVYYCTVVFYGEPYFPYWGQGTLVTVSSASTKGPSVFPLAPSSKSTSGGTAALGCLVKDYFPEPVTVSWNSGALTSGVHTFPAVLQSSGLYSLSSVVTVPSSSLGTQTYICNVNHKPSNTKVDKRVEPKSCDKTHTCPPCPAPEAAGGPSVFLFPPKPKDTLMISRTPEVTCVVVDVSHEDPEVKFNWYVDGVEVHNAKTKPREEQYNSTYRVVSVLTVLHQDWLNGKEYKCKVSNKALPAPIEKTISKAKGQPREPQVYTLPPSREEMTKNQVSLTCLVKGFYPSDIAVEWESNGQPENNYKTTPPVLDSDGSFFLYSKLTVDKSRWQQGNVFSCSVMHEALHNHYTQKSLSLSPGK
light: QIVLTQSPGTLSLSPGERATMTCTASSSVSSSYFHWYQQKPGQAPRLWIYRTSRLASGVPDRFSGSGSGTDFTLTISRLEPEDAATYYCHQFHRSPLTFGAGTKLEIKRTVAAPSVFIFPPSDEQLKSGTASVVCLLNNFYPREAKVQWKVDNALQSGNSQESVTEQDSKDSTYSLSSTLTLSKADYEKHKVYACEVTHQGLSSPVTKSFNRGEC
notes: also called Spesolimab
IC50 (M); hIL36α; IL-8 production [1]: 6.33e-11 M
IC50 (M); hIL36αβγ; IL-8 production [1]: 7.27e-11 M
IC50 (M); hIL36β; IL-8 production [1]: 3.29e-11 M
IC50 (M); hIL36γ; IL-8 production [1]: 2.63e-11 M
Maximum inhibition rate %; hIL36α; IL-8 production [1]: 101%
Maximum inhibition rate %; hIL36αβγ; IL-8 production [1]: 90.7%
Maximum inhibition rate %; hIL36β; IL-8 production [1]: 97.1%
Maximum inhibition rate %; hIL36γ; IL-8 production [1]: 107%
IC50; IL-8 production of NHK cells stimulated with hIL36β, inhibition rate % [4]: 0.248 nM
IC50; IL-8 production of NHK cells stimulated with hIL36γ, inhibition rate % [5]: 0.0387 nM
IC50 (M); hIL36α; IL-8 production [6]: 1.26e-10 M
IC50 (M); hIL36αβγ; IL-8 production [6]: 1.98e-10 M
IC50 (M); hIL36β; IL-8 production [6]: 3.03e-10 M
IC50 (M); hIL36γ; IL-8 production [6]: 4.42e-11 M
Maximum inhibition rate %; hIL36α; IL-8 production [6]: 106%
Maximum inhibition rate %; hIL36αβγ; IL-8 production [6]: 98.9%
Maximum inhibition rate %; hIL36β; IL-8 production [6]: 101%
Maximum inhibition rate %; hIL36γ; IL-8 production [6]: 105%
IC50 (M); hIL36α; NFκB-luciferase [2]: 1.75e-09 M
IC50 (M); hIL36αβγ; NFκB-luciferase [2]: 3.27e-09 M
IC50 (M); hIL36β; NFκB-luciferase [2]: 2.21e-09 M
IC50 (M); hIL36γ; NFκB-luciferase [2]: 1.1e-09 M
Maximum inhibition rate %; hIL36α; NFκB-luciferase [2]: 83.6%
Maximum inhibition rate %; hIL36αβγ; NFκB-luciferase [2]: 63.3%
Maximum inhibition rate %; hIL36β; NFκB-luciferase [2]: 85.2%
Maximum inhibition rate %; hIL36γ; NFκB-luciferase [2]: 81%
Kd [3]: 0.713 nM
koff [3]: 5.84e-05 s⁻¹
kon [3]: 81900 M⁻¹ s⁻¹

B6: chimeric 72C1 antibody (antibody, human IgG4 S228P, kappa)
heavy: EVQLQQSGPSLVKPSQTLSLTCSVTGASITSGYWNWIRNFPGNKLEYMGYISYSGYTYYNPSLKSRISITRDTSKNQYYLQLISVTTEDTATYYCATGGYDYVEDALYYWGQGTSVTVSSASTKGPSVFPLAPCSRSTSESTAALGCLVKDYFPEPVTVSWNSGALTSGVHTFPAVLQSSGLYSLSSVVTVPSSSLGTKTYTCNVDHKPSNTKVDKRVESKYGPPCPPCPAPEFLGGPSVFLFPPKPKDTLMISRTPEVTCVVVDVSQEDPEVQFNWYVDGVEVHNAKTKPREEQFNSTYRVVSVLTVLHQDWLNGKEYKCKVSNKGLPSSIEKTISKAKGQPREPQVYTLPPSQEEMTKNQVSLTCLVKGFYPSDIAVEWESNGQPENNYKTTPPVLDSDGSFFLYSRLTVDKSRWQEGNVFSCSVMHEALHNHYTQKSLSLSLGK
light: EILLTQSPAIMSATLGEKVTMSCRASSNVRYMYWYQLKSGASPKLWIYLTSNLASGVPARFSGSGSGTSYSLTISSVEAEDAATYFCQQFTTSPYTFGGGTKLEIKRTVAAPSVFIFPPSDEQLKSGTASVVCLLNNFYPREAKVQWKVDNALQSGNSQESVTEQDSKDSTYSLSSTLTLSKADYEKHKVYACEVTHQGLSSPVTKSFNRGEC
notes: Mouse variable regions on human IgG4 / kappa; also called xi72C1
IC50; IL-8 production of NHK cells stimulated with hIL36β, inhibition rate % [4]: 0.474 nM
IC50; IL-8 production of NHK cells stimulated with hIL36γ, inhibition rate % [5]: 0.0486 nM

Now from value to binder:

IC50 (M); hIL36α; IL-8 production [1]: 4.68e-11 M
IC50 (M); hIL36αβγ; IL-8 production [1]: 1.57e-10 M
IC50 (M); hIL36β; IL-8 production [1]: 6.52e-11 M
IC50 (M); hIL36γ; IL-8 production [1]: 1.12e-11 M
Maximum inhibition rate %; hIL36α; IL-8 production [1]: 95%
Maximum inhibition rate %; hIL36αβγ; IL-8 production [1]: 95.6%
Maximum inhibition rate %; hIL36β; IL-8 production [1]: 92.7%
Maximum inhibition rate %; hIL36γ; IL-8 production [1]: 101%
Kd [3]: 1.88 nM
koff [3]: 0.000196 s⁻¹
kon [3]: 105000 M⁻¹ s⁻¹
B2: hz84C4-2.4 (antibody, human IgG4 S228P, kappa, V domains shown)
VH: B1 VH with F28Y, Y60L, Q65K
VL: B1 VL with Y36L, F71Y
notes: Humanized, human IgG4 / kappa

IC50 (M); hIL36α; IL-8 production [1]: 4.81e-11 M
IC50 (M); hIL36αβγ; IL-8 production [1]: 6.61e-11 M
IC50 (M); hIL36β; IL-8 production [1]: 1.24e-11 M
IC50 (M); hIL36γ; IL-8 production [1]: 8.4e-12 M
Maximum inhibition rate %; hIL36α; IL-8 production [1]: 99.7%
Maximum inhibition rate %; hIL36αβγ; IL-8 production [1]: 98.5%
Maximum inhibition rate %; hIL36β; IL-8 production [1]: 102%
Maximum inhibition rate %; hIL36γ; IL-8 production [1]: 103%
IC50 (M); hIL36α; NFκB-luciferase [2]: 9.38e-10 M
IC50 (M); hIL36αβγ; NFκB-luciferase [2]: ~1.55e-09 M
IC50 (M); hIL36β; NFκB-luciferase [2]: 7.66e-10 M
IC50 (M); hIL36γ; NFκB-luciferase [2]: 3.5e-10 M
Maximum inhibition rate %; hIL36α; NFκB-luciferase [2]: 85.7%
Maximum inhibition rate %; hIL36αβγ; NFκB-luciferase [2]: 54.4%
Maximum inhibition rate %; hIL36β; NFκB-luciferase [2]: 83.1%
Maximum inhibition rate %; hIL36γ; NFκB-luciferase [2]: 84.7%
Kd [3]: 1.44 nM
koff [3]: 0.000138 s⁻¹
kon [3]: 96400 M⁻¹ s⁻¹
B3: hz84C4-2.5 (antibody, human IgG4 S228P, kappa, V domains shown)
VH: B1 VH with A24V, R38N, Y60L, Q65K
VL: B1 VL with Y36L, F71Y
notes: Humanized, human IgG4 / kappa

IC50; IL-8 production of NHK cells stimulated with hIL36β, inhibition rate % [4]: 0.848 nM
IC50; IL-8 production of NHK cells stimulated with hIL36γ, inhibition rate % [5]: 0.125 nM
B5: chimeric 84C4 antibody (antibody, human IgG4 S228P, kappa)
heavy: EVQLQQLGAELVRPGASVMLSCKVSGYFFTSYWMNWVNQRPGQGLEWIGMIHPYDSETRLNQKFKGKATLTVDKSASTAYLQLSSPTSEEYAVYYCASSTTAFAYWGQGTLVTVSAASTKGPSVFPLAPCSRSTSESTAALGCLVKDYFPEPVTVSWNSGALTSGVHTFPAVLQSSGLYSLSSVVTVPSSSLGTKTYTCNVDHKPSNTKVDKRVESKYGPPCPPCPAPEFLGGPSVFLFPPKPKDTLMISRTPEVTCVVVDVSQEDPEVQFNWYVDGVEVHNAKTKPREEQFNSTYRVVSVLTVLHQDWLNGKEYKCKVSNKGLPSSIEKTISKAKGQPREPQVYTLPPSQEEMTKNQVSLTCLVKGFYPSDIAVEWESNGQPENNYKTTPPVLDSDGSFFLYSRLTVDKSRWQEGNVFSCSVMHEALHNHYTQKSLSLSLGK
light: DILMTQSPSSLSASLGERVSLTCRASQDIGNALNWLQQAPDGTIKRLIYATSSLDPGVPKRFSGSRSGSDYSLTISSLASEDFVYYYCLQYASSPYTFGGGTKLEIKRTVAAPSVFIFPPSDEQLKSGTASVVCLLNNFYPREAKVQWKVDNALQSGNSQESVTEQDSKDSTYSLSSTLTLSKADYEKHKVYACEVTHQGLSSPVTKSFNRGEC
notes: Mouse variable regions on human IgG4 / kappa; also called xi84C4
